PMC3175028 (2011)

Experiments:
hedKR [1] = target: T1, hedKR (Streptomyces griseoruber, UniProt Q67G28); experiment: steady-state kinetics of reduction; format: biochemical
hedKR [2] = target: T1, hedKR; experiment: […] Å co-crystal structure; format: binding
hedKR [3] = target: T1, hedKR; experiment: steady-state inhibition kinetics of trans-1-decalone reduction; format: biochemical
O[C@H]1CCCc2ccccc21 = experiment: steady-state kinetics of oxidation, A340; format: biochemical, Streptomyces griseoruber; conditions: NADP+

| Molecule | Km (O[C@H]1CCCc2ccccc21) [µM] | kcat (O[C@H]1CCCc2ccccc21) [s⁻¹] | kcat/Km (O[C@H]1CCCc2ccccc21) [M⁻¹ s⁻¹] | further results |
| --- | --- | --- | --- | --- |
| O=C1CCC[C@H]2CCCC[C@H]12 (relative stereo) [trans-1-decalone] | – | – | – | Km (hedKR [1]): 591 ± 147 µM |
| NC(=O)C1=CN([C@@H]2O[C@H](COP(=O)(O)OP(=O)(O)OC[C@H]3O[C@@H](n4cnc5c(N)ncnc54)[C@H](OP(=O)(O)O)[C@@H]3O)[C@@H](O)[C@H]2O)C=CC1 [NADPH] | – | – | – | 2.4 Å co-crystal structure (hedKR [2]): There is clear electron density for NADPH in each monomer of the crystal structure. |
| O=c1c(O)c(-c2ccc(O)c(O)c2)oc2cc(O)cc(O)c12 [compound 22, quercetin] | – | – | – | Ki (hedKR [3]): ~114 µM |
| hedKR (Streptomyces griseoruber; N92L) | 4320 ± 521 | 0.169 ± 0.00653 | 39.1 ± 4.96 | – |
| hedKR (Streptomyces griseoruber; N92P) | 14100 ± 1360 | 0.0323 ± 0.00166 | 2.29 ± 0.249 | – |
